Target: mAb binding to Consensus GII.4 VLPs (BioGenes; IgG clone #1-9-1)
Assay: IVRP competition ELISA; serially diluted thin-film freeze-dried and reconstituted vaccine (4% trehalose or 5% sucrose, bulk or single-vial TFFD) competes for mAb against plate-coated VLP; reference is undried vaccine

Norovirus genotype GII.4 Consensus VLP (from UniProt P54635 1-539)
relative potency (IVRP; inflection point of test vaccine divided by that of reference vaccine): 49 to 73%
